Measured values as given in publication PMC4454452 (The Biochemical journal, 2014).

Biological target: CHD4 PHD2 finger (15N-labelled, GST tag cleaved) (uniformly 15N-labelled)
Assay: NMR titration

A Kd of 18 µM was found for ARTKQTARKSTG [unmodified histone H3 peptide (amino acids 1-12 of histone H3), NMR experiments] in this work.
